Measurements taken from US10023629B2 (priority 2012, dated 2018).
“Also recorded” adds a separate entry of the source.

Tests used:
[1] = molecular target: N1rec, tetrameric recombinant N1 Neuraminidase (Influenza A virus, UniProt Q30CC2); experiment: biochemical; parameters: species or system H5N1 A/crested eagle/Belgium/09/2004
NIBRG-14ma virus = test system: NIBRG-14ma virus; parameters: species or system BALB/c mice; conditions: mouse, in vivo
H5N1 NIBRG-14 = experiment: microbe, parasite or virus in culture; assay type: cell-based, H5N1 influenza virus in MDCK cells
H5N1 NIBRG-23 = experiment: microbe, parasite or virus in culture; assay type: cell-based, H5N1 influenza virus in MDCK cells; conditions: Influenza A virus, H5N1, read-out: NIBRG-23, plaque size reduction
N1rec = assay type: binding, H5N1 A/crested eagle/Belgium/09/2004
[2] = molecular target: N1rec, tetrameric recombinant N1 Neuraminidase (soluble recombinant H5N1 NA derived from A/crested e (influenza A virus A/crested eagle/Belgium/01/2004 (H5N1))); experiment: SPR, immobilized N1rec
[3] = molecular target: N1rec, tetrameric recombinant N1 Neuraminidase (soluble recombinant H5N1 NA derived from A/crested e (influenza A virus A/crested eagle/Belgium/01/2004 (H5N1))); experiment: SPR (Biacore 3000), N1rec immobilized on CM5 chip, VHHm injected
[4] = molecular target: N1rec, tetrameric recombinant N1 Neuraminidase (soluble recombinant H5N1 NA derived from A/crested e (influenza A virus A/crested eagle/Belgium/01/2004 (H5N1))); experiment: cell-based or functional assay

CCOC(=O)C1=C[C@@H](OC(CC)CC)[C@H](NC(C)=O)[C@@H](N)C1 [Oseltamivir]
IC50 [1]: 586 nM | morbidity (body weight) (NIBRG-14ma virus): significant body weight loss | protection against lethality (NIBRG-14ma virus): protected the mice against lethality; also recorded: full protection | viral RNA in lung homogenates (RT-qPCR Ct) (NIBRG-14ma virus): only slightly different | survival (NIBRG-14ma virus; po, 1 mg/kg/day): 100% | IC50 (H5N1 NIBRG-14; Influenza A virus, H5N1, read-out: NIBRG-14, plaque size reduction): 15000 nM | IC50 (H5N1 NIBRG-23): 73000 nM

B1: N1-7-VHHm: binding but non-inhibitory N1-VHHm control (protein)
VHH: QVQLQESGGGLVQPGGSLRLSCAASGSRFSRYDMGWYRQAPGKQRELVATITSGGITNYADSVKGRFTISRDNTKNTVYLQMNSLKPEDTAVYYCNAEDPLRAIQLGSLTYEYWGQGTQVTVSSHHHHHH
Koff (N1rec): 2.8E^−3 s^−1 | Kon (N1rec): 4.4E^+4 M^−1 · s^−1 | binding to N1rec after prior binding of another N1-VHHm (N1rec): not affected | fold lower affinity KD than N1-5-VHHm and N1-3-VHHm, respectively (N1rec): 10- to 100 fold | Kd (N1rec; read-out: KKD): 63 nM | size and number of NIBRG-14 plaques (H5N1 NIBRG-14): did not affect the size or number

B2: N1-7-VHHm (VHH)
VHH: QVQLQESGGGLVQPGGSLRLSCAASGSRFSRYDMGWYRQAPGKQRELVATITSGGITNYADSVKGRFTISRDNTKNTVYLQMNSLKPEDTAVYYCNAEDPLRAIQLGSLTYEYWGQGTQVTVSS
fold lower affinity (KD) than N1-3-VHHm [2]: 100 fold | fold lower affinity (KD) than N1-5-VHHm [2]: 10 fold | Kd [3]: 63 nM | koff [3]: 0.0028 s⁻¹ | kon [3]: 44000 M⁻¹ s⁻¹

B3: N1-3-VHHm (VHH)
VHH: QVQLQESGGGLVQPGGSLRLSCAASGSIFSIHDMGWYRRAPGKQRELVAAITSGGSTNYADSVKGRFTISRDNAKNTVSLQMNSLKPEDTAVYYCNAWGEDYGLGEYDSWGQGTQVTVSS
Kd [3]: 0.37 nM | koff [3]: 0.0013 s⁻¹ | kon [3]: 3.6e+06 M⁻¹ s⁻¹ | IC50 of inhibition of the catalytic N1 NA activity (MUNANA, 160 ng N1rec) [4]: 425 nM

B4: N1-5-VHHm (VHH)
VHH: QVQLQESGGGLVQPGGSLRLSCAASGSDISIYEMGWYRQAPGKQRELVAAITSGGTTNYADSVKGRFTISRDNAKNTVYLQMNSLKPEDTAVYYCNAADFDLWEYDYWGQGTQVTVSS
Kd [3]: 4.7 nM | koff [3]: 0.00058 s⁻¹ | kon [3]: 120000 M⁻¹ s⁻¹ | IC50 of inhibition of the catalytic N1 NA activity (MUNANA, 160 ng N1rec) [4]: 375 nM
